In patent publication US11596620B2, “Formulations with reduced oxidation” (Genentech, Inc., priority 2013, dated 2023):

Experiments:
Assay type in all cases: physicochemical, human
mAb1 [1] = assay: Light stress of mAb1 formulation (eight hours at 250 W/m^2), papain digest RP-HPLC; conditions: eight hours of light at 250 W/m^2
Protocol: L-tryptophan (L-Trp), an antioxidant used in protein formulations, has been recently shown to be photosensitive (Igarashi et al., Anal Sci 23(8):943-8 (2007)) and to have the ability to produce H2O2 upon light exposure. […] Control vials were wrapped in aluminum foil and treated similarly. After light exposure, solutions were prepared for analysis by reverse-phase HPLC. […] Following incubation, 900 μL of the solution was combined with 100 μL of 1 M dithiothreitol (DTT) and incubated for another thirty minutes at 37° C. Samples were then run on an Agilent, Inc. 1100/1200 HPLC system (Santa Clara, Calif.) equipped with UV detection at 280 nm in conjunction with a Varian, Inc. Pursuit 3 μm, 2 mm ID×250 mm diphenyl column (Palo Alto, Calif.). Mobile Phase A was 0.1% TFA in water. Mobile Phase B was 0.1% TFA in acetonitrile. The mobile phase gradient increased linearly from 34% B at 0 minutes to 43% B at 50.0 minutes, then to 95% B at 50.1 minutes. The gradient remained at 95% B until 60.1 minutes, and then decreased linearly from 95% B to 34% B between 60.1 and 60.2 minutes. The gradient remained at 34% B until the end of the cycle at 80.2 minutes. The column temperature was 65° C., total flow rate was 0.2 mL/min, and injection volume of each sample was 6 μL. Chromatograms were then integrated for quantification of oxidation.

mAb1 [2] = assay: mAb1 light stress study (16 hours at 250 W/m^2), RP-HPLC; conditions: 16 hours of light at 250 W/m^2
Protocol: The fragments were reduced with DTT, and then separated and identified via Liquid Chromatography-Mass Spectrometry (LC-MS). […] Comparison of area integrated under the oxidized and native peaks was used to quantify HC Fab and Fc oxidation. […] By using the papain digest RP-HPLC method in the present study it was possible to investigate Trp residue oxidation by quantifying HC Fab oxidation, and Met residue oxidation by quantifying HC Fc oxidation.
Antioxidants were added at 1 mM. Glass vials containing these formulations were exposed to 250 W/m^2 light in an Atlas SunTest CPS+ Xenon Test Instrument (Chicago, Ill.). Control vials were wrapped in aluminum foil and treated similarly. After light exposure, solutions were prepared for analysis by reverse-phase HPLC as described above.

mAb1 [3] = assay: mAb1 Fenton stress study (H2O2 + Fe), RP-HPLC; conditions: 10 ppm H2O2 and 0.2 mM Fe(III), 40° C. for 3 hours; no excipient
Protocol: Antioxidants were added at a final concentration of 1 mM. […] After incubation, each reaction was quenched by addition of 100 mM L-Met and then prepared for analysis by reverse-phase HPLC as described above.
The Fenton reaction, using a mixture of H2O2 and Fe ions, generates oxidation through a metal catalyzed, hydroxyl radical reaction (Prousek et al., Pure and Applied Chemistry 79(12):2325-2338 (2007)). This reaction generated Fab, i.e. tryptophan, oxidation in mAb1. The reaction was also carried out in the presence of select antioxidants that were useful against both AAPH and light induced oxidation as reported above. Data related to the antioxidant properties against Fenton mediated reaction were analyzed using the RP-HPLC assay as described above. The Fenton reaction used 10 ppm of H2O2 and 0.2 mM of Fe(III). The reaction was incubated at 40° C. for 3 hours, quenched with 100 mM L-Met and analyzed using RP-HPLC after papain digest. All samples were the average of three separate vials, and mAb1 control (Ref Mat) was one vial with five independent injections on the HPLC. […] In regards to protection against Fc oxidation, the tested excipients (other than salicylic acid) performed slightly better than L-Trp.

drozitumab [mAb1]
Fc oxidation, effect in words (mAb1 [1]; no excipient, or 10, 25, 50 and 100 mM L-Met added to 1 mM L-Trp): only a minor increase in Fc oxidation | Fab oxidation (mAb1 [1]; mAb1 5 mg/mL, no excipient or 1 mM L-Trp, reference material and foil control about 2%): 4% | Fab oxidation increase over the control level (mAb1 Ref Mat) (mAb1 [2]; excipient 1 mM or none): 3.5 fold | Increase in Fc oxidation over the control level (mAb1 [2]; no excipient): 40% | Oxidation in the Fab region over the control (mAb1 [3]): about four times
